B1: TPR t1 (parent)
chain: GACCAAUCUGCCCUCAGAGCUCGAGAACAUCUUCGGAUGCAGAGGAGGCAGGCUUCGGUGGCGCGAUAGCGCCAACGUCCUCAACCUCCAAUGCAUCCCACCACAUGAUGAUGCCUGAAGAGCCUUGGUUUUUUG

Variants of: B1
Test: polymerase ribozyme fitness, log enrichment relative to wild type (log ratio); higher = more active; in vitro selection for triplet polymerase activity
How it was run: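 Mutant libraries were PCR-built and transcribed for each subunit of a heterodimeric triplet polymerase ribozyme and selected for one round in triplicate at −7 °C, frozen, before gel excision of extended constructs and streptavidin-bead capture. Input and output libraries were Illumina-sequenced, keeping genotypes with ≥10 input reads and ≥1 read per output. Fitness is a logarithmic ratio of genotype to wild-type enrichment, in base 2, using inverse-variance-weighted replicate averages.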

| Variant | polymerase ribozyme fitness (log ratio) |
| --- | --- |
| G51A C88U | -2.93 |
| A50G C72G C79A U132C | -1.72 |
| C53G C72U C104A | -1.89 |
| C53G C62U C72A C124U | 0.806 |
| C53A C115U A119U | 0.429 |
| C53G C89U C115U | -2.67 |
| G52A A74G U78G C80A | -3.14 |
| C53G C70U U125C | -3.18 |
| A50G C99U G110C | -7.74 |
| G52A C115U | -2 |
| C53G C56A G117C | -4.49 |
| G52U G93C G120A G135C | -1.15 |
| C53G G60A C104A U125A U131A | -3.15 |
| G52U C73A | -0.528 |
| C53A A90U G117C | -4.59 |
| G52U A83C C101G C115U | -4.77 |
| G51A U81C C97U C115G | -5.02 |
| G51U G61A | -3.03 |
| C53A C70U | 0.0165 |
| A50G U55G C79G A91C U109A | -6.64 |
| A50G C88A C97G | -4.42 |

| Variant | polymerase ribozyme fitness (log ratio) |
| --- | --- |
| G51C C62U | -3.45 |
| G52U G61A C94U | -0.267 |
| G52U C62A | -2.89 |
| G52A G63C | -0.879 |
| C53A C88U C101A | 0.356 |
| G52A U59A | 0.487 |
| G52A G93A | -0.652 |
| C53A U81G A90G | 0.427 |
| A50G C88G G120A C124U U126C | 0.11 |
| G52U U133G | -1.42 |
| A50G C56A C82A U131C | -1.25 |
| C53A C98A C102G U112C | -7.27 |
| G52U C56U | -2.1 |
| C53A A68U | -6.8 |
| C53A U55A G71C C88U C89U | -1.28 |
| C53U C62G | -1.49 |
| A50G A74U A91C | -2.03 |
| G51U G71C U109G G117U C124G | -7.73 |
| A50G G60C | -1.81 |
| G51U C73U U112C | -1.32 |
| G52A C73U C82U | -0.555 |

| Variant | polymerase ribozyme fitness (log ratio) |
| --- | --- |
| G51U G77C A91C C94A | -5.09 |
| C53G G57U | 0.0545 |
| G51A G60U G113A U116A | -7.25 |
| C53G C72G C88A | -0.997 |
| G51A U54G C73G C98U | -5.39 |
| G51A G60A | -1.34 |
| C53U C124U | 1.92 |
| C53U C124G | 1.61 |
| A50G U112C U116A | -0.435 |
| C53A G58A C89G C102U A103U C123G | -5.91 |
| A50U G60A G93A | -1.39 |
| G51U C64G A83C G113U C123G G127A | -6.21 |
| C53U C62G C70U G110A | -6.1 |
| A50U G51A G60A | -4.34 |
| A50U C101A | -2.09 |
| G52A G69A A90C U116G G117C A118G | -6.12 |
| C53A C56G G71C G127C | -1.96 |
| C53A G63A | -0.638 |
| C53A G63U | -1.77 |
| G52A C53A A74G A90G | 0.00151 |
| G52A A66G | -1.47 |

| Variant | polymerase ribozyme fitness (log ratio) |
| --- | --- |
| C53G C72G G117C | -4.69 |
| A50G C86A C115G | -2.42 |
| C53G U59G C94G | -0.648 |
| G52C G69A C114U | -5.1 |
| C53G C102A | -2.97 |
| G51U U55A C73U U78G C98U A105U | -7.15 |
| C53G G122A | -1.37 |
| G51A G57C C114A | -3.38 |
| G52C C72A C104U C115G U116C U126G | -6.41 |
| G51C G57A | -3.2 |
| C53A U78C C104A | -1.25 |
| G51U C104U | -3.67 |
| A50U U112A U125C | -0.475 |
| A50G | 0.111 |
| A50U | -0.868 |
| G51A C85U | -3.77 |
| G52U G60A A105C U106G A118G | -3.93 |
| G51A C101U G117A | -4.58 |
| C53A C72U C104U G113C | -2.1 |
| C53U C86G C89G C97U C124U | -1.92 |
| C53U C124A G128C | -0.772 |

— the RNAGym collection of RNA variant scans (doi:10.1073/pnas.2313332121)
